These results are taken from patent publication US20220363770A1 (Amgen, published 2022).

For one assay, the target named is human CGRP receptor (human, UniProt Q16602 23-461; O60894 27-148). Nature of the assay: cell-based or functional assay.
A further assay deals with T1, human PAC1 receptor (human, UniProt P41586 24-468).
T1 sequence: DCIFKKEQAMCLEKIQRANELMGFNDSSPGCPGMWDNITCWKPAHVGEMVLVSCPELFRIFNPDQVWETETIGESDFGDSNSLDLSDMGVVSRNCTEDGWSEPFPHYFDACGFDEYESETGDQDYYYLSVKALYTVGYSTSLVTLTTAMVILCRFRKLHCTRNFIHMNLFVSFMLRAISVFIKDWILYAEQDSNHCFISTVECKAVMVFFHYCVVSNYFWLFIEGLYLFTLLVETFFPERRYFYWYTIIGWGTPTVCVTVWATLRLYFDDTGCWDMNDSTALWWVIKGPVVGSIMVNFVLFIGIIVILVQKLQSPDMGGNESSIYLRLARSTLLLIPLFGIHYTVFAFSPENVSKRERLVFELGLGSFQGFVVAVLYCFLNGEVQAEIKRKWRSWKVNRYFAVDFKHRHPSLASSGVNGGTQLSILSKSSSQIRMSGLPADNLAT
Nature of the assay: cell-based or functional assay.

Sequence of human CGRP receptor (Q16602 23-461 limits assumed, chain 1 of 2): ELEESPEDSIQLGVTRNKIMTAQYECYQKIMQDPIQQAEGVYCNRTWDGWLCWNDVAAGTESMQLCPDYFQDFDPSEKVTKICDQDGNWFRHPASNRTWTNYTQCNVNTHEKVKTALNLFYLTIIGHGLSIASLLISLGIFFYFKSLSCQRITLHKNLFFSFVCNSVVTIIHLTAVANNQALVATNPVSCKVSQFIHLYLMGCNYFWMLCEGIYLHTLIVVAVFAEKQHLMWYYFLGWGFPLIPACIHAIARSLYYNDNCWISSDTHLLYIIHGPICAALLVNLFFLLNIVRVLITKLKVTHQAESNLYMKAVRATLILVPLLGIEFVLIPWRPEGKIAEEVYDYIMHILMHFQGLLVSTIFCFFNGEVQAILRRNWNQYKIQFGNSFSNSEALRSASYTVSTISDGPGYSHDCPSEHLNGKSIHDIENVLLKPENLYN
Sequence of human CGRP receptor (O60894 27-148 limits assumed, chain 2 of 2): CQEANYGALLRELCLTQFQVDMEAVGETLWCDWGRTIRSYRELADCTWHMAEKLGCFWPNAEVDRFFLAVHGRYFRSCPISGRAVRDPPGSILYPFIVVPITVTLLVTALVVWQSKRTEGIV

B1: iPS:454569 (bispecific antibody, human IgG1, kappa, lambda, N297G)
light 1: QSVLTQPPSVSAAPGQKVTISCSGSYSNIGRYSVSWYQQLPGTAPKLLIYDNNKRPSGIPDRFSGSKSGTSATLGITGLQTGDEADYYCGTWDSRLSAVVFGGGTKLTVLGQPKAAPSVTLFPPSSEELQANKATLVCLISDFYPGAVTVAWKADSSPVKAGVETTTPSKQSNNKYAAKSYLSLTPEQWKSHRSYSCQVTHEGSTVEKTVAPTECS
heavy 1: QVQLVESGGGVVQPGRSLRLSCAASGFTFSSFGMHWVRQAPGKGLEWVAVISFDGSIKYSVDSVKGRFTISRDNSKNTLFLQMNSLRAEDTAVYYCARDRLNYYESSGYYHYKYYGMAVWGQGTTVTVSSASTKGPSVFPLAPSSKSTSGGTAALGCLVKDYFPEPVTVSWNSGALTSGVHTFPAVLQSSGLYSLESVVTVPSSSLGTQTYICNVNHKPSNTKVDKKVEPKSCDKTHTCPPCPAPELLGGPSVFLFPPKPKDTLMISRTPEVTCVVVDVSHEDPEVKFNWYVDGVEVHNAKTKPCEEQYGSTYRCVSVLTVLHQDWLNGKEYKCKVSNKALPAPIEKTISKAKGQPREPQVYTLPPSRKEMTKNQVSLTCLVKGFYPSDIAVEWESNGQPENNYKTTPPVLKSDGSFFLYSKLTVDKSRWQQGNVFSCSVMHEALHNHYTQKSLSLSPGK
light 2: EIVLTQSPATLSLSPGERATLSCRASKSVGRSLHWYQQKPGQAPRLLIKYASQSLSGIPARFSGSGSGTDFTLTISSLEPEDFAVYYCHQSSRLPFTFGPGTKVDIKRTVAAPSVFIFPPSDEQLKSGTASVVCLLNNFYPREAKVQWKVDNALQSGNSQESVTEQDSKDSTYSLESTLTLSKADYEKHKVYACEVTHQGLSSPVTKSFNRGEC
heavy 2: not shown
For the molecule B1, in the assay with human CGRP receptor, the “Fold-improvement over 4E4 Ab” value was 0.41 fold and the half-maximal inhibitory concentration (IC50) was found to be 1.42 nM. Also, in the assay with human PAC1 receptor, the “Fold-improvement over 29G4v22 Ab” value is 3.8 fold and the midpoint of inhibition, the IC50, lay at 1.27 nM.

B2: iPS:454729 (bispecific antibody, human IgG1, kappa, lambda, N297G)
light 1: QSVLTQPPSVSAAPGQKVTISCSGSYSNIGRYSVSWYQQLPGTAPKLLIYDNNKRPSGIPDRFSGSKSGTSATLGITGLQTGDEADYYCGTWDSRLSAVVFGGGTKLTVLGQPKAAPSVTLFPPSSEELQANKATLVCLISDFYPGAVTVAWKADSSPVKAGVETTTPSKQSNNKYAAKSYLSLTPEQWKSHRSYSCQVTHEGSTVEKTVAPTECS
heavy 1: QVQLVESGGGVVQPGRSLRLSCAASGFTFSSFGMHWVRQAPGKGLEWVAVISFDGSIKYSVDSVKGRFTISRDNSKNTLFLQMNSLRAEDTAVYYCARDRLNYYESSGYYHYKYYGMAVWGQGTTVTVSSASTKGPSVFPLAPSSKSTSGGTAALGCLVKDYFPEPVTVSWNSGALTSGVHTFPAVLQSSGLYSLESVVTVPSSSLGTQTYICNVNHKPSNTKVDKKVEPKSCDKTHTCPPCPAPELLGGPSVFLFPPKPKDTLMISRTPEVTCVVVDVSHEDPEVKFNWYVDGVEVHNAKTKPCEEQYGSTYRCVSVLTVLHQDWLNGKEYKCKVSNKALPAPIEKTISKAKGQPREPQVYTLPPSRKKMTKNQVSLTCLVKGFYPSDIAVEWESNGQPENNYKTTPPVLKSDGSFFLYSKLTVDKSRWQQGNVFSCSVMHEALHNHYTQKSLSLSPGK
light 2: EIVLTQSPATLSLSPGERATLSCRASKSVGQSLHWYQQKPGQAPRLLIKYASQSLSGIPARFSGSGSGTDFTLTISSLEPEDFAVYYCHQSSRLPFTFGPGTKVDIKRTVAAPSVFIFPPSDEQLKSGTASVVCLLNNFYPREAKVQWKVDNALQSGNSQESVTEQDSKDSTYSLESTLTLSKADYEKHKVYACEVTHQGLSSPVTKSFNRGEC
heavy 2: not shown
Take B2: in the assay with human CGRP receptor, the “Fold-improvement over 4E4 Ab” value was determined as 1 fold and the “IC50” value was 0.53 nM. In addition, in the assay with human PAC1 receptor, the “Fold-improvement over 29G4v22 Ab” value turned out to be 6.9 fold and it took 0.97 nM to reach half-maximal inhibition (IC50).

B3: iPS:454587 (bispecific antibody, human IgG1, kappa, lambda, N297G)
light 1: QSVLTQPPSVSAAPGQKVTISCSGSYSNIGRYSVSWYQQLPGTAPKLLIYDNNKRPSGIPDRFSGSKSGTSATLGITGLQTGDEADYYCGTWDSRLSAVVFGGGTKLTVLGQPKAAPSVTLFPPSSEELQANKATLVCLISDFYPGAVTVAWKADSSPVKAGVETTTPSKQSNNKYAAKSYLSLTPEQWKSHRSYSCQVTHEGSTVEKTVAPTECS
heavy 1: QVQLVESGGGVVQPGRSLRLSCAASGFTFSSFGMHWVRQAPGKGLEWVAVISFDGSIKYSVDSVKGRFTISRDNSKNTLFLQMNSLRAEDTAVYYCARDRLNYYESSGYYHYKYYGMAVWGQGTTVTVSSASTKGPSVFPLAPSSKSTSGGTAALGCLVKDYFPEPVTVSWNSGALTSGVHTFPAVLQSSGLYSLESVVTVPSSSLGTQTYICNVNHKPSNTKVDKKVEPKSCDKTHTCPPCPAPELLGGPSVFLFPPKPKDTLMISRTPEVTCVVVDVSHEDPEVKFNWYVDGVEVHNAKTKPCEEQYGSTYRCVSVLTVLHQDWLNGKEYKCKVSNKALPAPIEKTISKAKGQPREPQVYTLPPSRKEMTKNQVSLTCLVKGFYPSDIAVEWESNGQPENNYKTTPPVLKSDGSFFLYSKLTVDKSRWQQGNVFSCSVMHEALHNHYTQKSLSLSPGK
light 2: EIVLTQSPATLSLSPGERATLSCRASKSVGWSLHWYQQKPGQAPRLLIKYASQSLSGIPARFSGSGSGTDFTLTISSLEPEDFAVYYCHQSSRLPFTFGPGTKVDIKRTVAAPSVFIFPPSDEQLKSGTASVVCLLNNFYPREAKVQWKVDNALQSGNSQESVTEQDSKDSTYSLESTLTLSKADYEKHKVYACEVTHQGLSSPVTKSFNRGEC
heavy 2: not shown
Take B3: in the assay with human CGRP receptor, the “Fold-improvement over 4E4 Ab” value was 0.9 fold and the half-maximal inhibitory concentration (IC50) turned out to be 0.58 nM. In the assay with human PAC1 receptor, the “Fold-improvement over 29G4v22 Ab” value turned out to be 1.3 fold and half-maximal inhibition (IC50) required 4.36 nM.

B4: iPS:454585 (bispecific antibody, human IgG1, kappa, lambda, N297G)
light 1: QSVLTQPPSVSAAPGQKVTISCSGSYSNIGRYSVSWYQQLPGTAPKLLIYDNNKRPSGIPDRFSGSKSGTSATLGITGLQTGDEADYYCGTWDSRLSAVVFGGGTKLTVLGQPKAAPSVTLFPPSSEELQANKATLVCLISDFYPGAVTVAWKADSSPVKAGVETTTPSKQSNNKYAAKSYLSLTPEQWKSHRSYSCQVTHEGSTVEKTVAPTECS
heavy 1: QVQLVESGGGVVQPGRSLRLSCAASGFTFSSFGMHWVRQAPGKGLEWVAVISFDGSIKYSVDSVKGRFTISRDNSKNTLFLQMNSLRAEDTAVYYCARDRLNYYESSGYYHYKYYGMAVWGQGTTVTVSSASTKGPSVFPLAPSSKSTSGGTAALGCLVKDYFPEPVTVSWNSGALTSGVHTFPAVLQSSGLYSLESVVTVPSSSLGTQTYICNVNHKPSNTKVDKKVEPKSCDKTHTCPPCPAPELLGGPSVFLFPPKPKDTLMISRTPEVTCVVVDVSHEDPEVKFNWYVDGVEVHNAKTKPCEEQYGSTYRCVSVLTVLHQDWLNGKEYKCKVSNKALPAPIEKTISKAKGQPREPQVYTLPPSRKEMTKNQVSLTCLVKGFYPSDIAVEWESNGQPENNYKTTPPVLKSDGSFFLYSKLTVDKSRWQQGNVFSCSVMHEALHNHYTQKSLSLSPGK
light 2: EIVLTQSPATLSLSPGERATLSCRASKSVGWSLHWYQQKPGQAPRLLIKYASQSLSGIPARFSGSGSGTDFTLTISSLEPEDFAVYYCHQSSRLPFTFGPGTKVDIKRTVAAPSVFIFPPSDEQLKSGTASVVCLLNNFYPREAKVQWKVDNALQSGNSQESVTEQDSKDSTYSLESTLTLSKADYEKHKVYACEVTHQGLSSPVTKSFNRGEC
heavy 2: not shown
Regarding B4, in the assay with human CGRP receptor, the “Fold-improvement over 4E4 Ab” value was 1.1 fold and half-maximal inhibition (IC50) required 0.51 nM. In the assay with human PAC1 receptor, the “Fold-improvement over 29G4v22 Ab” value came to 2.1 fold and the “IC50” value is 2.65 nM.

B5: iPS:454583 (bispecific antibody, human IgG1, kappa, lambda, N297G)
light 1: QSVLTQPPSVSAAPGQKVTISCSGSYSNIGRYSVSWYQQLPGTAPKLLIYDNNKRPSGIPDRFSGSKSGTSATLGITGLQTGDEADYYCGTWDSRLSAVVFGGGTKLTVLGQPKAAPSVTLFPPSSEELQANKATLVCLISDFYPGAVTVAWKADSSPVKAGVETTTPSKQSNNKYAAKSYLSLTPEQWKSHRSYSCQVTHEGSTVEKTVAPTECS
heavy 1: QVQLVESGGGVVQPGRSLRLSCAASGFTFSSFGMHWVRQAPGKGLEWVAVISFDGSIKYSVDSVKGRFTISRDNSKNTLFLQMNSLRAEDTAVYYCARDRLNYYESSGYYHYKYYGMAVWGQGTTVTVSSASTKGPSVFPLAPSSKSTSGGTAALGCLVKDYFPEPVTVSWNSGALTSGVHTFPAVLQSSGLYSLESVVTVPSSSLGTQTYICNVNHKPSNTKVDKKVEPKSCDKTHTCPPCPAPELLGGPSVFLFPPKPKDTLMISRTPEVTCVVVDVSHEDPEVKFNWYVDGVEVHNAKTKPCEEQYGSTYRCVSVLTVLHQDWLNGKEYKCKVSNKALPAPIEKTISKAKGQPREPQVYTLPPSRKEMTKNQVSLTCLVKGFYPSDIAVEWESNGQPENNYKTTPPVLKSDGSFFLYSKLTVDKSRWQQGNVFSCSVMHEALHNHYTQKSLSLSPGK
light 2: EIVLTQSPATLSLSPGERATLSCRASKSVGWSLHWYQQKPGQAPRLLIKYASQSLSGIPARFSGSGSGTDFTLTISSLEPEDFAVYYCHQSSRLPFTFGPGTKVDIKRTVAAPSVFIFPPSDEQLKSGTASVVCLLNNFYPREAKVQWKVDNALQSGNSQESVTEQDSKDSTYSLESTLTLSKADYEKHKVYACEVTHQGLSSPVTKSFNRGEC
heavy 2: not shown
For B5, in the assay with human CGRP receptor, the “Fold-improvement over 4E4 Ab” value worked out at 1.1 fold and the “IC50” value was 0.51 nM. Moreover, in the assay with human PAC1 receptor, the “Fold-improvement over 29G4v22 Ab” value amounted to 2.8 fold and the “IC50” value was found to be 2.48 nM.
